Data from patent US20240197839A1, “Recombinant Human Acid Alpha-Glucosidase and Uses Thereof” (Amicus Therapeutics, Inc., priority 2021, published 2024).
Marks after values point to notes of the source that are not given here. One block for each compound: values may come before it.

Experiments:
CIMPR [1] = target: T1, CIMPR (Homo sapiens, UniProt P11717); assay: CIMPR plate binding assay
Experimental: In addition to having a greater percentage of rhGAA that can bind to the CIMPR, it is important to understand the quality of that interaction. LUMIZYME® and ATB200 receptor binding was determined using a CIMPR plate binding assay. Briefly, CIMPR-coated plates were used to capture GAA. Varying concentrations of rhGAA were applied to the immobilized receptor and unbound rhGAA was washed off. The amount of remaining rhGAA was determined by GAA activity. […] For LUMIZYME®, there is on average only 10% of molecules having a bis-phosphorylated N-glycan. In contrast, on average every rhGAA molecule in ATB200 has at least one bis-phosphorylated N-glycan.
N-glycan analysis via MALDI-TOF mass spectrometry confirmed that on average each ATB200 molecule contains at least one natural bis-M6P N-glycan structure.

[2] = tested on: normal and Pompe fibroblast cell lines; assay: cellular uptake of rhGAA in fibroblasts (internalized GAA by 4MU-α-Glucoside hydrolysis); format: cell-based
Experimental: The relative cellular uptake of ATB200 and LUMIZYME® rhGAA were compared using normal and Pompe fibroblast cell lines. Comparisons involved 5-100 nM of ATB200 according to the disclosure with 10-500 nM conventional rhGAA product LUMIZYME®. After 16-hr incubation, external rhGAA was inactivated with TRIS base and cells were washed 3-times with PBS prior to harvest. Internalized GAA measured by 4MU-α-Glucoside hydrolysis and was graphed relative to total cellular protein and the results appear in FIGS. 11A-11C.

[3] = thermostability assay using SYPRO Orange; format: physicochemical
Experimental: The stability of ATB200 in acidic or neutral pH buffers was evaluated in a thermostability assay using SYPRO Orange, as the fluorescence of the dye increases when proteins denature. […] As summarized in Table 6, the addition of AT2221 increased the melting temperature (Tm) of ATB200 by nearly 10° C.

Gaa KO mice = assay: single fiber analysis (LAMP1/LC3 co-immunofluorescence, white gastrocnemius); format: in vivo
Description: FIG. 17 depicts co-immunofluorescent staining of LAMP1 (green) (see for example, “B”) and LC3 (red) (see, for example, “A”) in single fibers isolated from the white gastrocnemius of Gaa KO mice treated with a vehicle, alglucosidase alfa, or ATB200. “C” depicts clearance of autophagic debris and absence of enlarged lysosome. A minimum of 30 fibers were examined from each animal.
As a result, a significant portion of muscle fibers analyzed (36-60%) from ATB200-treated mice appeared normal or near-normal.

CIMPR [4] = target: T1, CIMPR; assay: CIMPR affinity chromatography (bound vs unbound rhGAA by GAA activity); format: binding; details: CIMPR affinity column, fraction of total enzyme by GAA activity
Description: Multiple batches of the rhGAA according to the disclosure were produced in shake flasks and in perfusion bioreactors using CHO cell line GA-ATB200, the product of which is referred to as “ATB200.” Weak anion exchange (“WAX”) liquid chromatography was used to fractionate ATB200 rhGAA according to terminal phosphate and sialic acid. Elution profiles were generated by eluting the ERT with increasing amount of salt. The profiles were monitored by UV (A280 nm).
To evaluate the ability of the conventional rhGAAs in MYOZYME® and LUMIZYME® to interact with the CIMPR, the two conventional rhGAA preparations were injected onto a CIMPR affinity column (which binds rhGAA having M6P groups) and the flow through collected. The bound material was eluted with a free M6 gradient. Fractions were collected in 96-well plate and GAA activity assayed by 4MU-α-glucosidase substrate. The relative amounts of unbound (flow through) and bound (M6P eluted) rhGAA were determined based on GAA activity and reported as the fraction of total enzyme. […] Indeed, only 27% of the rhGAA in MYOZYME® and 22% of the rhGAA in LUMIZYME® contained M6P that can be productive to target it to the CIMPR on muscle cells.

T1 sequence (P11717 41-2491, species assumed): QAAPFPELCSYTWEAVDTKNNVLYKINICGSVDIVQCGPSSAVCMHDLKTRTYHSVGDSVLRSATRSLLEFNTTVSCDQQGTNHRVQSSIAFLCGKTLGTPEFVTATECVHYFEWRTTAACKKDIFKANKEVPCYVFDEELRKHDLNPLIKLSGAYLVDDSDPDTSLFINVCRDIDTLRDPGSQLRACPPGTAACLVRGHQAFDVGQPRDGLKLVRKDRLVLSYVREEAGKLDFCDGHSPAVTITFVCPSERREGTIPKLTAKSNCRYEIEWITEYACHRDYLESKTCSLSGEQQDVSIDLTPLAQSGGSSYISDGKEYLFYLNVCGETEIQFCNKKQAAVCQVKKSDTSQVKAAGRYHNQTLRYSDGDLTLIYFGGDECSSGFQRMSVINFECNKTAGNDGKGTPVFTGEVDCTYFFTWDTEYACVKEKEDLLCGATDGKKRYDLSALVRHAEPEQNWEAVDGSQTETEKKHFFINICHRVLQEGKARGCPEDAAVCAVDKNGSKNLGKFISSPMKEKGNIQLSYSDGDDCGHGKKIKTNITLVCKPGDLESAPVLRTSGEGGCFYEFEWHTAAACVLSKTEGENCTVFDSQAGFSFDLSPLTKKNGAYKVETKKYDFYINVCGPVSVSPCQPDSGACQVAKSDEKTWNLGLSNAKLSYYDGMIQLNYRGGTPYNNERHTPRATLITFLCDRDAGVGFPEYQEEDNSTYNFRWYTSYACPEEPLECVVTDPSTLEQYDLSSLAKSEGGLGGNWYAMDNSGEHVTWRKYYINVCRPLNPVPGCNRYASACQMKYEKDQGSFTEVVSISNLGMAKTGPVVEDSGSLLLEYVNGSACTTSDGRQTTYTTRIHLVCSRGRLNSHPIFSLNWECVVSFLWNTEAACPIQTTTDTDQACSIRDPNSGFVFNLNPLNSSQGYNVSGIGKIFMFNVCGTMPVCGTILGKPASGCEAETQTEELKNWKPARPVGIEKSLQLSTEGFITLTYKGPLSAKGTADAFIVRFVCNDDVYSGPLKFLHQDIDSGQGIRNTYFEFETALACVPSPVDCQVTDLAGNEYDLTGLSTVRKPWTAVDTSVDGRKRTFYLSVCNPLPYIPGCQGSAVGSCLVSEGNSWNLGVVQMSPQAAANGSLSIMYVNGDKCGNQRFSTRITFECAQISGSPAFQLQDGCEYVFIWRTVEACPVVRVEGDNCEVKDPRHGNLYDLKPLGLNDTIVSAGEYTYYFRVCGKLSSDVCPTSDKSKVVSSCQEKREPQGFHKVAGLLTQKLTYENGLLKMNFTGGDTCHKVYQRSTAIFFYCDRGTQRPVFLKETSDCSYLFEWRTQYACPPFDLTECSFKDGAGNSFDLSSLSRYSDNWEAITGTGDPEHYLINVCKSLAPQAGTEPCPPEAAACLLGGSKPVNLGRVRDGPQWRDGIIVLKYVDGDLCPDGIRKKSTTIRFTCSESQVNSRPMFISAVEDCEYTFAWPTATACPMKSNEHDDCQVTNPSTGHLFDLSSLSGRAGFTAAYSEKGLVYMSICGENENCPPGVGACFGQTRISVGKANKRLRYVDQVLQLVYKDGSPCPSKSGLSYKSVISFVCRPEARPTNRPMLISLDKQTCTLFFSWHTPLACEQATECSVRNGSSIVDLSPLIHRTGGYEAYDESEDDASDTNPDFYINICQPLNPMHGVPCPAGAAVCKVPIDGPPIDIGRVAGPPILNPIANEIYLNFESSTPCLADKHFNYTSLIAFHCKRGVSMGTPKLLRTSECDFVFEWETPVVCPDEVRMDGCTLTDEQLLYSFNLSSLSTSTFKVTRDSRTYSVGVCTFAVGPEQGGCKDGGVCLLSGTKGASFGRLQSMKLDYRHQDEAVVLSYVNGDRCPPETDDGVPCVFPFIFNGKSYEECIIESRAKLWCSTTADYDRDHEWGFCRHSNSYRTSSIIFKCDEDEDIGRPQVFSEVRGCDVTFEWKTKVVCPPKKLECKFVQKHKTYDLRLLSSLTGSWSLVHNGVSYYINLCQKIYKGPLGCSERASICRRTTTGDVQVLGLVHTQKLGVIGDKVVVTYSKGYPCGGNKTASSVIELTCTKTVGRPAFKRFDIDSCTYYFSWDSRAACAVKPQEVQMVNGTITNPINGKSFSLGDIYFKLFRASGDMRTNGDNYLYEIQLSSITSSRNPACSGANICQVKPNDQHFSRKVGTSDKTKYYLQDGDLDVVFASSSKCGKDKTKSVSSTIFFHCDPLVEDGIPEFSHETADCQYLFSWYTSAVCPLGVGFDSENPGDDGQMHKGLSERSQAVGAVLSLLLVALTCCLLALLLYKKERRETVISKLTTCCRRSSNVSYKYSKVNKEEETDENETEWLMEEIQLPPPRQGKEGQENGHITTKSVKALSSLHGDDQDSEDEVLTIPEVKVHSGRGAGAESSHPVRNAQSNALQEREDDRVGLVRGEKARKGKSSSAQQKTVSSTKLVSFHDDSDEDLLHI

binding to CIMPR compared with LUMIZYME (CIMPR [1]; CIMPR-coated plates, varying rhGAA concentrations (FIG. 10A)): significantly better | Kd (CIMPR [1]; M6P receptor plate binding assays): 2 to 4 nM
Compound: ATB200: recombinant human acid α-glucosidase with a high content of N-glycans bearing mono-M6P and bis-M6P, produced from a GA-ATB200 CHO cell line
internalization into normal and Pompe fibroblast cells compared with LUMIZYME ([2]; 16-hr incubation, FIGS. 11A-11B): internalized to a greater degree | concentration that saturates cellular receptors ([2]; 16-hr incubation, normal and Pompe fibroblasts): about 20 nM | uptake efficiency constant (Kuptake) ([2]; extrapolated from uptake curves, FIG. 11C): 2-3 nm | Tm ([3]; pH 5.2): 67.3 °C | Tm ([3]; pH 7.4): 56.2 °C | Tm ([3]; pH 7.4 + 10 μM AT2221): 61.6 °C | Tm ([3]; pH 7.4 + 30 μM AT2221): 62.9 °C | Tm ([3]; pH 7.4 + 100 μM AT2221): 66.0 °C | Fibers with Autophagy Buildup (Gaa KO mice; Gaa KO mice): 40-64%* | area / extent of autophagic buildup (Gaa KO mice; single fibers, compared to Vehicle- or alglucosidase alfa-treated group): reduced to various degrees

increase of the melting temperature (Tm) of ATB200 by addition of AT2221 ([3]; pH 7.4): ~10 °C
Compound: CCCCN1C[C@H](O)[C@@H](O)[C@H](O)[C@H]1CO [AT2221, (2R,3R,4R,5S)-1-butyl-2-(hydroxymethyl)piperidine-3,4,5-triol]
stabilization of ATB200 by AT2221 ([3]; pH 7.4, FIG. 12): stabilized ATB200 at pH 7.4 in a concentration-dependent manner

rhGAA that did not bind to the CIMPR (CIMPR [4]; flow through): 73% | rhGAA that binds to the CIMPR (M6P eluted) (CIMPR [4]): 27%
Compound: MYOZYME®: conventional rhGAA product containing alglucosidase alfa, marketed by Genzyme
lysosomes and autophagic buildup compared to vehicle-treated mice (Gaa KO mice; single fibers, FIG. 17): did not show any significant difference
